Target: human FcγRIIB (CD32B) on peripheral B cells (human) (UniProt P31994)
Test: in vivo receptor occupancy on peripheral B cells of human subjects after infusion of 100 mg BI-1206 (preliminary clinical data)

Chain of UniProt P31994 (P31994 43-310): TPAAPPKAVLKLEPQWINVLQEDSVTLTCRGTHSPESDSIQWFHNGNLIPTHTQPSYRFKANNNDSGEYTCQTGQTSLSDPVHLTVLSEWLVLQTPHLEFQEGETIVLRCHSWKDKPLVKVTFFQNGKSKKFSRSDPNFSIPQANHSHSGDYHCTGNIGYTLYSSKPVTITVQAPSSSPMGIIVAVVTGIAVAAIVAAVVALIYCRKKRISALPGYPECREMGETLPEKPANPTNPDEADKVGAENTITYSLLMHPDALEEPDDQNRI

receptor occupancy: 100%
Substance: BI-1206 (antibody)

From patent EP3919077A1
